The target in assay [1] is T1, human galectin-10-His (human).
T1 construct: The last M of the tag may be Met1 of galectin-10; also called humanGal10-His; hGal10
T1 chain: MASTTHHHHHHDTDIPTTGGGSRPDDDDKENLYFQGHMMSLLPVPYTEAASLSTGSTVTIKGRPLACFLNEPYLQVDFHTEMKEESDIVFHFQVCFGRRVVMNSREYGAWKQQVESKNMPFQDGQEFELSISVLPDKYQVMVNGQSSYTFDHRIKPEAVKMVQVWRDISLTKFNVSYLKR
The assay can be described thus: SPR Biacore (summary table). As to the method: (§1) The binding properties of the scFv-human Fc panel to galectin-10 were analyzed on the Biacore T3000. For this purpose, a CM5 Chip was coated with polyclonal anti-human Fc at 8000 RU, then a fixed concentration of the scFv-human Fc panel (1.5 μg/mL) were captured to reach a binding signal around 150 RU. Finally, a serial dilution of human or cynomolgus WGS isoform of galectin-10-His (serial dilution, 1 over 2 from 5 μg/mL, 6 points of dilution) was injected. Raw data were analyzed via BIA evaluation software with a blank subtraction (4-3). Finally, the kd/KD and Rmax of each scFv-human Fc to galectin-10-His was determined using the Fit Kinetics simultaneous ka/kd/Binding with mass transfer/Local Rmax on BIA evaluation software.

The target of assay [2] is T2, cynomolgus galectin-10-His, WGS isoform (cynomolgus).
T2 construct: also called cynoGal10-WGS; not shown: His tag
T2 chain: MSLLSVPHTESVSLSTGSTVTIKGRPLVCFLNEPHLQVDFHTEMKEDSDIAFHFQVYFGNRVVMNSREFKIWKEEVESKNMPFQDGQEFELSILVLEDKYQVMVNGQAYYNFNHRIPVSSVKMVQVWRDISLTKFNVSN
Description: SPR Biacore (summary table). Here is the method:
as §1

Assay [3] has as its target T1, human galectin-10-His. The assay can be described thus: binding ELISA (summary table). As to the method:
(§2) In a similar setup to that used during the initial screening, the relative binding properties of the 11 new scFv-human Fc clones were analyzed by ELISA. Briefly, a Maxisorp plate was coated overnight with human or cynomolgus WGS or YRT isoforms of galectin-10-His at 0.2 μg/mL and blocked with PBS 1% casein, before being incubated with a serial dilution of the scFv-human Fc fusion molecules (from 100 nM, dilution 1/5, 8 points of dilutions). After several washing steps, detection of the bound scFv-human Fc was carried out with an anti-human Fc-HRP antibody (Jackson ImmunoResearch, Catalog 109-035-008). Absorbance was measured at 450 nm (reference at 620 nm) with Tecan instrument. Finally, the raw data (OD values) were plotted on GraphPad Prism 7.01. The EC50 values of each clone, calculated with a non-linear regression (log(agonist) vs. response Variable slope (four parameters)) are reported in Table 19 below. As a positive control, clone 6F05 from the previous galectin-10 antibody panel was included.

Assay [4] deals with T2, cynomolgus galectin-10-His, WGS isoform. The assay can be described thus: binding ELISA (summary table). Here is the method: as §2
Assay [5] addresses T3, cynomolgus galectin-10-His, YRT isoform (cynomolgus).
T3 construct: also called cynoGal10-YRT; not shown: His tag
T3 chain: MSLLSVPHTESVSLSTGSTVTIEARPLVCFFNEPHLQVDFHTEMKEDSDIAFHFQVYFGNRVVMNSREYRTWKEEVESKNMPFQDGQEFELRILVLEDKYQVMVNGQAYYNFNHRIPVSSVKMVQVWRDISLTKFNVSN
The assay can be described thus: binding ELISA (summary table). As to the method: as §2

Assay [6] has as its target T1, human galectin-10-His. The assay can be described thus: ELISA, coated antigen 0.2 ug/mL. Here is the method: as §2
Assay [7] deals with T2, cynomolgus galectin-10-His, WGS isoform. Description: ELISA, coated antigen 0.2 ug/mL. As to the method: as §2
Assay [8] deals with T3, cynomolgus galectin-10-His, YRT isoform. The assay can be described thus: ELISA, coated antigen 0.2 ug/mL. As to the method: as §2
The target in assay [9] is T1, human galectin-10-His. Description: SPR Biacore T3000, scFv-human Fc captured. As to the method: as §1
For assay [10], the target named is T2, cynomolgus galectin-10-His, WGS isoform. Description: SPR Biacore T3000, scFv-human Fc captured. As to the method: as §1

B1: 10B02 scFv-human Fc (Fc fusion)
scFv: QVQLVESGGGLVQPGGSLRVSCAASGFTFSYHYMNWVRQAPGKGLEWVSGISAGGGRTYYADSVKGRFTISRDNAKNTLYLQMNSLNAEDTALYYCARVHGITNDYWGQGTQVTVSSGGGGSGGGGSGGGGSQSALTQPPSVSGSPGKTVTISCAGTSSDVGYGNYVSWYQQLPGMAPKLLIYEVNKRASGITDRFSGSKSGNTAFLTISGLQSEDEADYYCASYRNSNNWVFGGGTHLTVL
notes: also called 010B02; not shown: CH2-CH3 constant domains of human IgG1 (pUPEX50 scFv-Fc fusion vector)
For B1, the Kd with human galectin-10-His [1] was determined as 1600 pM; in [2], 1000 pM; in the assay with human galectin-10-His [9], 1600 pM; in assay [10], 1000 pM. For the same molecule, the koff worked out at 0.00081 s⁻¹ with human galectin-10-His [1], 0.0008 s⁻¹ in assay [2], 0.00081 s⁻¹ with human galectin-10-His [9] and 0.0008 s⁻¹ in assay [10]. The kon in the assay with human galectin-10-His [1] stood at 500000 M⁻¹ s⁻¹; in assay [2] it was 770000 M⁻¹ s⁻¹; with human galectin-10-His [9], 500000 M⁻¹ s⁻¹; in assay [10], 770000 M⁻¹ s⁻¹. The EC50 with human galectin-10-His [3] came to 90 pM; in assay [4], 50 pM; in [5], 50 pM; with human galectin-10-His [6], 90 pM; in assay [7], 50 pM; in assay [8], 50 pM. Further, the Bmax with human galectin-10-His [6] was determined as 2.2 OD; in assay [7], 3.3 OD; in assay [8], 3.2 OD.

B2: 10A06 scFv-human Fc (Fc fusion)
scFv: QVQLVESGGGLVQPGGSLRLSCAASGFTFGNYDMSWVRQAPGKGPEWVSDINSGGGSTYYADSVKGRFTISRDNAKNSLLLQMNSLKPEDTAVYYCATGYTGYYYWGQGTQVTVSSGGGGSGGGGSGGGGSQTVVTQEPSLSVSPGGTVTLTCGLSSGSVTSSNYPAWYQQTPGQAPRALIYSINSRHSGVPDRFSGSISGNKAALTITGAQAEDEADYYCTLYMGTGSNNVVFGGGTHLTVL
notes: also called 010A06; not shown: CH2-CH3 constant domains of human IgG1 (pUPEX50 scFv-Fc fusion vector)
B2: the Kd with human galectin-10-His [1] and in the assay with human galectin-10-His [9] was 300 pM each time. Besides, the koff in the assay with human galectin-10-His [1] and in the assay with human galectin-10-His [9] was 0.00025 s⁻¹ in each case. The kon with human galectin-10-His [1] and with human galectin-10-His [9] was 910000 M⁻¹ s⁻¹ each time. Besides, the EC50 with human galectin-10-His [3] came to 80 pM; in assay [5] it was 40 pM; with human galectin-10-His [6], 80 pM; in [8], 40 pM. In addition, the Bmax came out at 1.2 OD with human galectin-10-His [6] and 3 OD in [8].

B3: 8H11 scFv-human Fc (Fc fusion)
scFv: ELQLVESGGGLVQPGGSLRLSCAASGFTFSTNYMNWVRQAPGKGLEWVSGITSGGGRTYYADSVKGRFTISRDNAKNTLYLQMNSLKPEDTALYYCARTDHAWLDAWGQGTLVTVSSGGGGSGGGGSGGGGSQAGLTQPPSVSGTLGKTVTISCAGTSSDVGYGNYVSWYQQLPGTAPKLLIYAVSTRASGIPDRFSGSKSGNTASLTISGLLSEDEADYYCASYRSSNNYVFGGGTKLTVL
notes: also called 008H11; not shown: CH2-CH3 constant domains of human IgG1 (pUPEX50 scFv-Fc fusion vector)
With B3, the Kd with human galectin-10-His [1] was 1800 pM; in assay [2], 900 pM; with human galectin-10-His [9], 1800 pM; in [10] it was 900 pM. The off-rate (koff) with human galectin-10-His [1] was 0.00082 s⁻¹; in assay [2] it was 0.00161 s⁻¹; with human galectin-10-His [9], 0.00082 s⁻¹; in assay [10], 0.00161 s⁻¹. The kon was determined as 453000 M⁻¹ s⁻¹ with human galectin-10-His [1], 1.75e+06 M⁻¹ s⁻¹ in assay [2], 453000 M⁻¹ s⁻¹ with human galectin-10-His [9] and 1.75e+06 M⁻¹ s⁻¹ in assay [10]. In addition, the EC50 with human galectin-10-His [3] was 180 pM; in [4] it was 130 pM; in assay [5] it was 100 pM; with human galectin-10-His [6] it was 180 pM; in [7], 130 pM; in assay [8] it was 100 pM. In addition, the results for the Bmax (in the assay with human galectin-10-His [6]; in [7]; in assay [8]) were 2.3 OD, 3.1 OD and 3.1 OD, respectively.

B4: 11F02 scFv-human Fc (Fc fusion)
scFv: ELQVVESGGGLVQPGGSLRLSCAASGFTFSTNYMNWVRQAPGKGLEWVSGITSHGARTYYADSVKGRFTISRDNSKNTLYLQMNSLKPEDTALYYCARTDHASLDAWGQGTLVTVSSGGGGSGGGGSGGGGSQTVVTQEPSLSVSPGGTVTLTCGLSSGSVTSSNYPGWYQQKPGQAPRTLIYNTNSRYSGVPNRFSGSISGNKAALTITGAQPEDEADYYCALYMGSSSYNTVFGGGTHLTVL
notes: also called 011F02; not shown: CH2-CH3 constant domains of human IgG1 (pUPEX50 scFv-Fc fusion vector)
As for B4, the Kd turned out to be 5400 pM in the assay with human galectin-10-His [1], 7900 pM in assay [2], 5400 pM with human galectin-10-His [9] and 7900 pM in assay [10]. Moreover, the koff came to 0.00203 s⁻¹ with human galectin-10-His [1], 0.00185 s⁻¹ in assay [2], 0.00203 s⁻¹ with human galectin-10-His [9] and 0.00185 s⁻¹ in assay [10]. Also, the kon with human galectin-10-His [1] is 370000 M⁻¹ s⁻¹; in assay [2] it was 240000 M⁻¹ s⁻¹; in the assay with human galectin-10-His [9], 370000 M⁻¹ s⁻¹; in assay [10], 240000 M⁻¹ s⁻¹. In addition, the figures for the EC50 (in the assay with human galectin-10-His [3]; in assay [4]; with human galectin-10-His [6]) were 770 pM, 10400 pM and 770 pM, respectively. For the same molecule, the Bmax in the assay with human galectin-10-His [6] is 1.5 OD; in assay [7], 2.5 OD; in assay [8] it was 2.5 OD.

B5: 11F12 scFv-human Fc (Fc fusion)
scFv: QVQLQESGGGLVQPGGSLRLSCAASGFTFSTNYMNWVRQAPGKGLEWVSGITSGGGRTYYADSVKGRFTISRDNAKNTLYLQMNSLKPEDTALYYCARTDHAWLDAWGQGTLVTVSSGGGGSGGGGSGGGGSHSAVTQPPSVSGTLGKTVTISCAGTSSDVGYGNYVSWYQHLPGTAPKLLIYAVSTRASGVPDRFSGSKSGNTASLTISGLQSEDEGDYYCASYSVRNNVVFGGGTRLTVL
notes: also called 011F12; not shown: CH2-CH3 constant domains of human IgG1 (pUPEX50 scFv-Fc fusion vector)
Take B5: the Kd in the assay with human galectin-10-His [1] and with human galectin-10-His [9] was 2300 pM throughout. In addition, the koff in the assay with human galectin-10-His [1] and with human galectin-10-His [9] was 0.00072 s⁻¹ each time. Further, the kon with human galectin-10-His [1] and with human galectin-10-His [9] was 320000 M⁻¹ s⁻¹ in each case. In addition, the EC50 with human galectin-10-His [3] turned out to be 560 pM; in [5] it was 240 pM; with human galectin-10-His [6], 560 pM; in assay [8], 240 pM. Besides, the figures for the Bmax (with human galectin-10-His [6]; in assay [8]) were 1.8 OD and 3 OD, respectively.

B6: 7B07 scFv-human Fc (Fc fusion)
scFv: QVQLVESGGGLVQPGGSLRLSCAASGFTFRSYDMSWVRQAPGKGPEWVSAIKNGGGITYYADSVKGRFTISRDNAKNTLYLQMNSLKPEDTAVYYCATTHGIGTLGFGSWGQGTQVTVSSGGGGSGGGGSGGGGSSYELTQSASVSVALTQTAKITCDGNNIGSKSAQWYQQKPGQAPALVIYADEYRPEGIPERFSGSNSGNTATLIISGAQAEDEADYYCQVWDGSAAVFGRGTHLTVL
notes: also called 007B07; not shown: CH2-CH3 constant domains of human IgG1 (pUPEX50 scFv-Fc fusion vector)
As to B6, the Kd in the assay with human galectin-10-His [1] was 800 pM; in assay [2], 1500 pM; with human galectin-10-His [9] it was 800 pM; in assay [10], 1500 pM. For the same molecule, the koff stood at 0.00124 s⁻¹ with human galectin-10-His [1], 0.0766 s⁻¹ in assay [2], 0.00124 s⁻¹ with human galectin-10-His [9] and 0.0766 s⁻¹ in [10]. In addition, the on-rate (kon) in the assay with human galectin-10-His [1] stood at 1.5e+06 M⁻¹ s⁻¹; in assay [2] it was 5e+07 M⁻¹ s⁻¹; with human galectin-10-His [9] it was 1.5e+06 M⁻¹ s⁻¹; in assay [10], 5e+07 M⁻¹ s⁻¹. The EC50 stood at 1110 pM in the assay with human galectin-10-His [3], 820 pM in assay [4], 1110 pM in the assay with human galectin-10-His [6] and 820 pM in assay [7]. Moreover, the values for the Bmax (with human galectin-10-His [6]; in assay [7]; in assay [8]) were 0.6 OD, 0.6 OD and 0 OD, respectively. For the same molecule, in assay [8], the binding result was “no binding (tested: serial dilution from 100 nM)”.

The values are drawn from patent publication US20190367619A1 (ARGENX, published 2019).
